The values that follow come from PMC10206189, “Nanobody inhibitors of Plexin-B1 identify allostery in plexin–semaphorin interactions and signaling” (The Journal of Biological Chemistry, 2023).

As a reminder, the Kd is the concentration at which binding is half-saturated. Higher therefore signals lower affinity.

B1: VHH15-6xHis (VHH)
VHH: QVQLQESGGGLVQPGGSLRLSCAASGFRLDYYAIGWFRQAPGKEREGVLCISSSGGSINYADSVKGRFTISRDNAKNTVYLQMNSLKPEDTAVYYCGASSYNTQRAECYGMDYWGKGTQVTVSA
notes: VHH15; not shown: His6, C-terminal, kept
B2: VHH17 (VHH)
VHH: QVQLQESGGGLVQAGGSLRLSCVAAGIPFSAYAMSWYRQAPGKQRDHIATVSSGGTTYYADSVKGRFTISRDNAKNTVYLQMNSLKPEDTAVYFCNTEFALGNWGQGTQVTVSA
B3: VHH13 (VHH)
VHH: QVQLQESGGGLVQAGGSLRLSCVASGFTFSSYAMGWYRRTPGNQQQLVATVSSSGTTYYGDSVKGRFTISRDNAKKTVYLQMNSLKPEDTAVYYCWRIGYWGQGTQVTVSA
B4: VHH14-6xHis (VHH)
VHH: QVQLQESGGGLVQAGGSLRLSCAASGFTLGYYAIGWFRQAPGKEREEVSCINASGGSTFYEDSVKGRFTISRDNAKNTVFLQMNRLKPEDTAVYYCAAACEVVAVGYWGQGTQVTVSA
notes: VHH14
B5: VHH16 (VHH)
VHH: QVQLQESGGDLVQAGGSLRLSCEVSGSSFDIYHWAWYRQVPGKEREWVATAYSAGTTHYADSVKGRFTISRDNAKNTVYLQMNSLIPEDTAVYFCNANIYWGRGTQVTVSA
B6: mouse Plexin-B1 (20–535)-6xHis (domain or fragment, UniProt Q8CJH3 20-535, looked up)
chain: LRSPLPAAFTANGTHLQHLARDPTTGTLYVGATNFLFQLSPGLQLEAVVSTGPVNDSRDCLPPVIPDECPQAQPTNNPNQLLLVSPEALVVCGSVHQGICELRSLGQIRQLLLRPERPGDTQYVAANDPAVSTVGLVAQGLVGEPLLFVGRGYTSRGVGGGIPPITTRALRPPDPQAAFSYEETAKLAVGRLSEYSHHFVSAFVRGASAYFLFLRRDLKAPSRAFRAYVSRVCLQDQHYYSYVELPLACQGGRYGLIQAAAVATSKEVARGDVLFAAFSSVAPPTVDWPLSASTGASGTSVLCAFPLDEVDQLANYTRDACYTREGRAENGTKVADIAYDVLSDCAQLPVDTPDAFPCGSDHTPSPMVSCVPLEATPILELPGVQLTAVAVTMEDGHTIAFLGDSQGQLHRVYLGPGRSAAPYSKQSIQPGSPVNRDLTFDGTFEHLYVATQTTLVKVPVAPCAQHLDCDSCLAHRDPYCGWCVLLGRCSRRSECSRDQGPEQWLWSFQPELGCLR
notes: mouse Plexin-B1, sema and PSI1 domains (D1-2); For crystallography the N-linked glycans were trimmed to a single N-acetylglucosamine with EndoH; also called mPlexin-B1; mouse Plexin-B1 domains 1 and 2; source: Expi293F, secreted, purified (Excel HisTrap, Superdex 200)
B7: biotinylated mouse Plexin-B1 (20–535)-Avi-6xHis (domain or fragment, UniProt Q8CJH3 20-535, looked up)
chain: B6 chain
modifications: biotin on the Avi-tag (BirA, in vitro)
notes: the Avi-tag stands between the C terminus of the fragment and the 6xHis-tag; source: Expi293F, secreted, purified as the unmodified version; biotinylated in vitro with BirA
B8: biotinylated mouse Plexin-B1 (20–535)-Avi-6xHis (domain or fragment, UniProt Q8CJH3 20-535, looked up)
chain: B6 chain
modifications: biotin on the Avi-tag (BirA, in vitro)
notes: as for B7
B9: human Plexin-B1 (20–535) (domain or fragment, UniProt O43157 20-535, looked up)
chain: LQPLPPTAFTPNGTYLQHLARDPTSGTLYLGATNFLFQLSPGLQLEATVSTGPVLDSRDCLPPVMPDECPQAQPTNNPNQLLLVSPGALVVCGSVHQGVCEQRRLGQLEQLLLRPERPGDTQYVAANDPAVSTVGLVAQGLAGEPLLFVGRGYTSRGVGGGIPPITTRALWPPDPQAAFSYEETAKLAVGRLSEYSHHFVSAFARGASAYFLFLRRDLQAQSRAFRAYVSRVCLRDQHYYSYVELPLACEGGRYGLIQAAAVATSREVAHGEVLFAAFSSAAPPTVGRPPSAAAGASGASALCAFPLDEVDRLANRTRDACYTREGRAEDGTEVAYIEYDVNSDCAQLPVDTLDAYPCGSDHTPSPMASRVPLEATPILEWPGIQLTAVAVTMEDGHTIAFLGDSQGQLHRVYLGPGSDGHPYSTQSIQQGSAVSRDLTFDGTFEHLYVMTQSTLLKVPVASCAQHLDCASCLAHRDPYCGWCVLLGRCSRRSECSRGQGPEQWLWSFQPELGCLQ
notes: human Plexin-B1, sema and PSI1 domains; also called hPlexin-B1; source: Expi293F, secreted, purified (Excel HisTrap, Superdex 200)

Read-outs that look alike come from different tables or passages of the source.

In test [1] the target is B6. The test is described as follows: crystal structure; VHH15:mPlexin-B1 complex, EndoH-treated; 8% PEG 8000, 0.1 M sodium citrate pH 5.0, 1% dextran sulphate, 18 °C. The following applies: both partners purified.
The target in test [2] is B6.
In test [3] the target is B6. The test is described as follows: crystal structure; VHH14:VHH15:mPlexin-B1 ternary complex; 15% PEG 6000, 0.1 M sodium citrate pH 5.5, 3% dextran sulphate, 18 °C. The conditions noted are these: both partners purified.
In test [4] the target is T1, VHH15-Fc (huarizo).
T1 construct: VHH cloned upstream of the Fc of human IgG1 (vector pHCMVi-Script HuIgG1 Fc); source: Expi293F, transfected; culture supernatant, and purified (HiTrap MabSelect, Superdex 200); not shown: Fc (human IgG1), C-terminal, kept
The test is described as follows: BLI; Octet RED384, 25 °C, 1× Kinetics buffer; purified VHH-Fc captured on Protein G biosensors, mouse Plexin-B1 in solution (VHH14-Fc: 10-3.75 nM, 1800 s association, 7200 s dissociation; VHH15-Fc: 160-10 nM, 600 s, 510 s); global 1:1 fit. The conditions noted are these: both partners purified. A general note: BLI is a label-free optical method that tracks binding on a fibre tip over time.

Test [5] addresses T1, VHH15-Fc. The test is described as follows: BLI; first phase of the competition assay: 100 nM VHH-Fc on biotinylated murine Plexin-B1 held on streptavidin biosensors; by the order of the results the VHH-Fcs were still in supernatants. The conditions noted are these: one partner purified.
Test [6] concerns the target T2, VHH14-Fc (huarizo).
T2 construct: VHH cloned upstream of the Fc of human IgG1 (vector pHCMVi-Script HuIgG1 Fc); source: Expi293F, transfected; culture supernatant, and purified (HiTrap MabSelect, Superdex 200); not shown: Fc (human IgG1), C-terminal, kept
Described as above. The conditions noted are these: one partner purified.

Test [7] has as its target T3, Recombinant Sema4D (1–677) with C-terminal 6xHis-tag (human, UniProt Q92854 22-677).
T3 construct: signal peptide in the construct; human Sema4D, residues 1-677 cloned in pcDNA5 and expressed as a secreted protein; also called human Sema4D; source: Expi293F, purified as the Plexin-B1 constructs (Excel HisTrap, Superdex 200)
T3 sequence (looked up): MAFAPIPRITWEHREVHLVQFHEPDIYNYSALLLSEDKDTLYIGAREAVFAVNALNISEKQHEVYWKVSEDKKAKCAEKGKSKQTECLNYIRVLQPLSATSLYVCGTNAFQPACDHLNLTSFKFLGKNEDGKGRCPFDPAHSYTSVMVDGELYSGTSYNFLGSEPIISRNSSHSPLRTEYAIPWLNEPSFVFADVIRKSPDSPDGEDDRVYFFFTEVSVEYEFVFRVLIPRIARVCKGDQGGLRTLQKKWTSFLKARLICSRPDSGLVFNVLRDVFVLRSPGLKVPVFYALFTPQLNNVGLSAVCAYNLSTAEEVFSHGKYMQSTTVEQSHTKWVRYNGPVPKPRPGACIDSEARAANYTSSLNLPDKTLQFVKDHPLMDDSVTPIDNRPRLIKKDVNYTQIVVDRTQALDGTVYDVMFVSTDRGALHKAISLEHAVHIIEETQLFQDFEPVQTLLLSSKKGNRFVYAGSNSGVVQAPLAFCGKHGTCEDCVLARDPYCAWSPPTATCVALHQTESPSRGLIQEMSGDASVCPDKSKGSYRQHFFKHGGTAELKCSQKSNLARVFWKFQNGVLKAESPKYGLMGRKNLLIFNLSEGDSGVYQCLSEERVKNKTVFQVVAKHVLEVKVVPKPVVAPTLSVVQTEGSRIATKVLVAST
As to the kind of experiment: BLI; competition assay, Octet RED384, 1× Kinetics buffer; biotinylated murine Plexin-B1 on streptavidin biosensors, 10 μg/ml human Sema4D with or without 100 nM VHH-Fc bound beforehand. The following applies: both partners purified.

For test [8], the target named is T1, VHH15-Fc. The test is described as follows: BLI; supernatants containing VHH-Fcs tested against mouse and human Plexin-B1. The following applies: one partner purified.
The target in test [9] is T2, VHH14-Fc. Described as above. The following applies: one partner purified.

Regarding B1, the binding result in test [1] is “binds”. Consider B2, for which, in test [2], the binding result was “binds”. For B3, the binding result in test [2] is recorded as “binds”.

B4: the binding result in test [3] is “binds”. For B5, in [2], the binding result is given as “binds”.

As to B6, the equilibrium dissociation constant (Kd) with VHH15-Fc [4] is 37.5 nM. For B7, the binding result in the test with VHH15-Fc [5] and in the test with VHH14-Fc [6] was “binds” in each case. In the case of B8, in test [7], the binding result is “binds”. With B9, the binding result with VHH15-Fc [8] and in the test with VHH14-Fc [9] was “no binding” each time.
